Measured values taken from patent US20140072613A1, “Compositions and Methods for Treating Cutaneous Scarring” (priority 2012, published 2014).

Columns and labels:
Experiment in all cases: biochemical
Format in all cases: biochemical
[1] = molecular target: 266 human kinases (Homo sapiens, UniProt P41240); conditions: CSK(h); 100 μM
How it was run: (§1)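 A filter-capture radiometric assay: phosphorylated cationic substrate binds an anionic membrane and is scintillation-counted, with values referenced to full-activity control.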

[2] = molecular target: 266 human kinases (Homo sapiens, UniProt Q00534); conditions: CDK6/cyclinD3(h); 100 μM
How it was run: as §1

[3] = molecular target: 266 human kinases (Homo sapiens, UniProt Q16539, T106M); conditions: SAPK2a(T106M)(h); 100 μM
How it was run: as §1

[4] = molecular target: 266 human kinases (Homo sapiens, UniProt Q86UE8); conditions: TLK2(h); 100 μM
How it was run: as §1

[5] = molecular target: 266 human kinases (Homo sapiens, UniProt P36888); conditions: Flt3(h); 100 μM
How it was run: as §1

[6] = molecular target: 266 human kinases (Homo sapiens, UniProt Q04912); conditions: Ron(h); 100 μM
How it was run: as §1

[7] = molecular target: 266 human kinases (Homo sapiens, UniProt Q9UK32); conditions: Rsk4(h); 100 μM
How it was run: as §1

[8] = molecular target: T1, 266 human kinases (Homo sapiens, UniProt P54762); conditions: EphB1(h); 100 μM
T1 sequence (P54762 18-984): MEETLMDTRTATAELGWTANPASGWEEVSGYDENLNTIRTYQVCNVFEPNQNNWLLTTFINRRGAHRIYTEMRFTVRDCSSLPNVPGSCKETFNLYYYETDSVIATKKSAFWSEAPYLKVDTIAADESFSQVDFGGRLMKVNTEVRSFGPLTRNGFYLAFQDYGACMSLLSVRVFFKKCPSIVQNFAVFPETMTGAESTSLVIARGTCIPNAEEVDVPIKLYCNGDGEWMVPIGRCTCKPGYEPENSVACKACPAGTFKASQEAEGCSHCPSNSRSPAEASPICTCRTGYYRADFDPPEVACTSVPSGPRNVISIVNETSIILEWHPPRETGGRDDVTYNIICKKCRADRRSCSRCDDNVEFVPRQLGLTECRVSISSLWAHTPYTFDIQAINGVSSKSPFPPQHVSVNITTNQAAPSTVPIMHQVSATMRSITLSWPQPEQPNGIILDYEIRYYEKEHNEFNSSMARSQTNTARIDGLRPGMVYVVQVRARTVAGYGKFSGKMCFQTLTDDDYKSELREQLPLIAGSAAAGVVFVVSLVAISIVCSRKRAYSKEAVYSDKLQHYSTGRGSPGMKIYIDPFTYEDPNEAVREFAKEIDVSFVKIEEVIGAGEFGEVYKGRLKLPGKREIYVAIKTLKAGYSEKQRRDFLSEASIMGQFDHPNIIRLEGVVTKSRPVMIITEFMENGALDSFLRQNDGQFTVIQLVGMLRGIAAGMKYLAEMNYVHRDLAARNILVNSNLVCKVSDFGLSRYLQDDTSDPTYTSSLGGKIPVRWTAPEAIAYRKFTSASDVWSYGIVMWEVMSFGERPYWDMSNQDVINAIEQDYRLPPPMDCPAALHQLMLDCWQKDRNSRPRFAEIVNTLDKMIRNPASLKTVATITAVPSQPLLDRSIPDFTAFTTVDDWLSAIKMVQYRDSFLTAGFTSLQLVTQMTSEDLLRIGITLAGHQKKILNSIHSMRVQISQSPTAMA
How it was run: as §1

[9] = molecular target: T2, 266 human kinases (Homo sapiens, UniProt Q12851); conditions: GCK(h); 100 μM
T2 sequence (Q12851 1-820): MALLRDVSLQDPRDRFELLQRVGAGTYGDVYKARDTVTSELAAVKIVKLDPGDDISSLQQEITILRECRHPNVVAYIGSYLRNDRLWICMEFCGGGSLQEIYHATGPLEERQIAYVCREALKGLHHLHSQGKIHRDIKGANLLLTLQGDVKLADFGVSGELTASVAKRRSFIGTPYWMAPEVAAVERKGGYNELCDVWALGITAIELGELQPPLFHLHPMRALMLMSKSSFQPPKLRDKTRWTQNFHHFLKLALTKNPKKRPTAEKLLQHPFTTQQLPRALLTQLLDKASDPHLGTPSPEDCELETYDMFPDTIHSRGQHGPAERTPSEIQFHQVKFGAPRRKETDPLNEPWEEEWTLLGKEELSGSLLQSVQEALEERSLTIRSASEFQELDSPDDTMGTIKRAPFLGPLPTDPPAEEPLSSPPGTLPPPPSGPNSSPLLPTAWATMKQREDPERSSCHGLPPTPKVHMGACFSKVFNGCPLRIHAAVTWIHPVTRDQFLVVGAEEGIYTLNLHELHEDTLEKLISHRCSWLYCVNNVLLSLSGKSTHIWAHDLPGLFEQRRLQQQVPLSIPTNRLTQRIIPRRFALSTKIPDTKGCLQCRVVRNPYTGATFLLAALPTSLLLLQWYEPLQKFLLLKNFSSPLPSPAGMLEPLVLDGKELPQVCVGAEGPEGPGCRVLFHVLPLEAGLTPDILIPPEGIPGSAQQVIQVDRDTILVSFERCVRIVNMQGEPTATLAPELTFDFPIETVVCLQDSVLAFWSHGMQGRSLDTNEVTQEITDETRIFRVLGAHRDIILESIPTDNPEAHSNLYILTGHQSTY
How it was run: as §1

[10] = molecular target: 266 human kinases (Homo sapiens, UniProt Q13555); conditions: CaMKIIγ(h); 100 μM
How it was run: as §1

[11] = molecular target: 266 human kinases (Homo sapiens, UniProt P08581, Y1230C); conditions: Met(Y1248C)(h); 100 μM
How it was run: as §1

Chain of 266 human kinases (Homo sapiens, UniProt Q16539, T106M) (Q16539 whole entry T106M): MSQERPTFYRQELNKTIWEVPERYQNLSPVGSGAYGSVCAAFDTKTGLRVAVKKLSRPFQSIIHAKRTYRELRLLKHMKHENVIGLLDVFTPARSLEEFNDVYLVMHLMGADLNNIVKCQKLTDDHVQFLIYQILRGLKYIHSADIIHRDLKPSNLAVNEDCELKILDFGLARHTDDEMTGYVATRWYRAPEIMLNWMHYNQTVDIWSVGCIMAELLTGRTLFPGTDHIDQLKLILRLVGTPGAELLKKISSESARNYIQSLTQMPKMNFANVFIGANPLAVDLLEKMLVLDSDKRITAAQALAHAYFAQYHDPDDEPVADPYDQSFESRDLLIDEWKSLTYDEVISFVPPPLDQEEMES
Chain of 266 human kinases (Homo sapiens, UniProt P41240) (P41240 whole entry): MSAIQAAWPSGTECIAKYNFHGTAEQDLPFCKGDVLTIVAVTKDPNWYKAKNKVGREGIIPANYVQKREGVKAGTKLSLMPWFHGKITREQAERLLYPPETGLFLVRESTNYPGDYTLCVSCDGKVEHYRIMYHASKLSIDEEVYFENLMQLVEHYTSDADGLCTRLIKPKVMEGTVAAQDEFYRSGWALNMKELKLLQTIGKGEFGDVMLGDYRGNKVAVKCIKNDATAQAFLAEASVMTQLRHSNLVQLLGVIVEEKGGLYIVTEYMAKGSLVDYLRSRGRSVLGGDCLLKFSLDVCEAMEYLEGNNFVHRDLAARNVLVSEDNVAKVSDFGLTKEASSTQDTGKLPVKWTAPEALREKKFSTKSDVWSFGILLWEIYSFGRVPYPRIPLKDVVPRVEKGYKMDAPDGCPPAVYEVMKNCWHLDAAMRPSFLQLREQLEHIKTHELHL
Chain of 266 human kinases (Homo sapiens, UniProt Q00534) (Q00534 whole entry): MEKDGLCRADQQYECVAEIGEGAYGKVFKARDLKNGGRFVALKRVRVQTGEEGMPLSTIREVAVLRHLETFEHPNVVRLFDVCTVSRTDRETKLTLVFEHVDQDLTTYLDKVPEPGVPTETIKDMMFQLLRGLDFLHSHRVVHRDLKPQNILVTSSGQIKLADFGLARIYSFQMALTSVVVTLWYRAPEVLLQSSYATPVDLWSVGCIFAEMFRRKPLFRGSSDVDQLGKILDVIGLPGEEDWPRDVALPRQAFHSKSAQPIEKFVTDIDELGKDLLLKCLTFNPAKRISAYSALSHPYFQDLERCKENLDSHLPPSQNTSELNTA
Chain of 266 human kinases (Homo sapiens, UniProt Q9UK32) (Q9UK32 whole entry): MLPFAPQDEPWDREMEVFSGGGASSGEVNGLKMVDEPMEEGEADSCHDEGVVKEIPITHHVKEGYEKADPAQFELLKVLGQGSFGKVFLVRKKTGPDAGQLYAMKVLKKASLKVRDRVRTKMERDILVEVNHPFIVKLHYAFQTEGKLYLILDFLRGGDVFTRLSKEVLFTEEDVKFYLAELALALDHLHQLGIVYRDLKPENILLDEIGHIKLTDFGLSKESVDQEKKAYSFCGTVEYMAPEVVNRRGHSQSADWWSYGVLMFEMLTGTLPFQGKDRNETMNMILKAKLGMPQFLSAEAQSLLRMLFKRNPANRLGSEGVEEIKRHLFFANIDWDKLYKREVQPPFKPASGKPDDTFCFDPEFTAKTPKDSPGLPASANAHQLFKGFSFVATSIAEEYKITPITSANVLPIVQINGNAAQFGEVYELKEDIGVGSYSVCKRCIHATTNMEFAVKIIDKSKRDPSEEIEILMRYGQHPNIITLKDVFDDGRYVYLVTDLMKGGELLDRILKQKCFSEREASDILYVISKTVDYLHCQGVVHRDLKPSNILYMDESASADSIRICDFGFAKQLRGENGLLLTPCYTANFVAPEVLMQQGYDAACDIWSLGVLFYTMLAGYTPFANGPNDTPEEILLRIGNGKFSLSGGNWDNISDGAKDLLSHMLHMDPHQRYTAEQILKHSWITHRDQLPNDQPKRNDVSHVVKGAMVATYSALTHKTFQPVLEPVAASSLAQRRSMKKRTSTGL
Chain of 266 human kinases (Homo sapiens, UniProt Q13555) (Q13555 whole entry): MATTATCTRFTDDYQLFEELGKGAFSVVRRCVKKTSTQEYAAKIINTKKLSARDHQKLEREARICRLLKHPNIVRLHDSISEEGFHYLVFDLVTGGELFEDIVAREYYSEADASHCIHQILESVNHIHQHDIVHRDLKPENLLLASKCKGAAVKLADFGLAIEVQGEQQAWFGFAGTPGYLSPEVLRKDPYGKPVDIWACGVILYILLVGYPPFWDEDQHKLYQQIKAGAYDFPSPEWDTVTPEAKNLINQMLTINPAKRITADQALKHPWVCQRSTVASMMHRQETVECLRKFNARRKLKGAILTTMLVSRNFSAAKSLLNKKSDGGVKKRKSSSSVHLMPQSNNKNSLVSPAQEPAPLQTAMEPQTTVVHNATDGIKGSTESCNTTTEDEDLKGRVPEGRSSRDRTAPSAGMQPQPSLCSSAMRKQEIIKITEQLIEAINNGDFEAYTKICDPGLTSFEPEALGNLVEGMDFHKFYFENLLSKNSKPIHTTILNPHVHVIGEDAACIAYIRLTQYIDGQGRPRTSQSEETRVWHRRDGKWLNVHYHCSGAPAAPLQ
Chain of 266 human kinases (Homo sapiens, UniProt Q86UE8) (Q86UE8 whole entry): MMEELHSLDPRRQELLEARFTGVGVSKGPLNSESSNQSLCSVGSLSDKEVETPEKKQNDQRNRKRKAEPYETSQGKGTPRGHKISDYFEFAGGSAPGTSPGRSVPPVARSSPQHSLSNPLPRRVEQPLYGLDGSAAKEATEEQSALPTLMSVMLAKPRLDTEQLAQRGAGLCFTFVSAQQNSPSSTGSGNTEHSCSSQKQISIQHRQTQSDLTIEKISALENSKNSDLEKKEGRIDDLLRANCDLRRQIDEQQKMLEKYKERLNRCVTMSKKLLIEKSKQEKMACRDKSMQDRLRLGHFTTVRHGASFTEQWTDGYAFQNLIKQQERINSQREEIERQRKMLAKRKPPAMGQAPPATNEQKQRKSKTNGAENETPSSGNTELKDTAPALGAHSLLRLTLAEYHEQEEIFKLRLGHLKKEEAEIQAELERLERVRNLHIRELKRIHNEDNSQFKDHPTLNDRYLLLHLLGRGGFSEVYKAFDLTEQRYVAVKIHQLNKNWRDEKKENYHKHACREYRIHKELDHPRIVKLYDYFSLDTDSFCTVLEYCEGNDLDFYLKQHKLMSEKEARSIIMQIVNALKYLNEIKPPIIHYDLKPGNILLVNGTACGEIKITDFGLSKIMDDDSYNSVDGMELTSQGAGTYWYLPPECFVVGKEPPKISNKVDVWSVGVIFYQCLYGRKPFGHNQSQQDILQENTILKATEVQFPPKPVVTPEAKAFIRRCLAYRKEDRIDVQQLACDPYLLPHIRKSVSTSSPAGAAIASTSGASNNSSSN

Sequence | % activity [1] [%] | % activity [2] [%] | % activity [3] [%] | % activity [4] [%] | % activity [5] [%] | % activity [6] [%] | % activity [7] [%] | % activity [8] [%] | % activity [9] [%] | % activity [10] [%] | % activity [11] [%]
HRRIKAWLKKIKALARQLGVAA (mammal) [MMI-0500] | 2 | 23 | 32 | 133 | 17 | 46 | 29 | 37 | 30 | 3 | 73
YARAAARQARAKALNRQLGVA (mammal) [MMI-0200] | 33 | 100 | 100 | 129 | 99 | 120 | 125 | 95 | 99 | 94 | 141
